Molecular target: GFP11(×7)-actin (actin fused to a seven-copy array of GFP11)
Assay: split reporter

fold brightness of the GFP channel versus GFP11(×1)-actin | Substance
3.6 fold | FluoSTEP-ICUE (mRuby2-Epac1(149 to 881)-GFP1–10)
> 5 fold | FluoSTEP-AKAR (R-G1–10–FluoSTEP-AKAR; mRuby2-FHA1-PKAsub-GFP1–10)

— publication PMC8139597
